According to paper PMC5567343, “Flow-induced elongation of von Willebrand factor precedes tension-dependent activation” (Nature Communications, 2017):

Key:
Conditions in all cases: both partners purified
[1] = target: T1, Recombinant human von Willebrand factor concatemers, labeled with biotin and Alexa Fluor 488 (human, UniProt P04275 764-2813, biotin (~0.3 per monomer, from Sulfo-NHS-LC-Biotin); Alexa Fluor 488 (0.67 fluorophore/monomer)); test: two-colour single-molecule TIRF imaging under flow; as a1 but 10 mM NaCl; VWF regions at average tension 20 ± 2.3 pN; apparent kon and koff, KD = koff/kon
T1 construct: Disulfide-linked concatemers of varying length; held on the flow-chamber wall through biotin and Traptavidin; also called VWF; VWF concatemer; source: Chinese hamster ovary cells, furin-treated, purified to >99% (Baxter BioScience); labeled, Sepharose CL-2B gel filtration, fraction 1; copies: ~20-200

[2] = target: T1, Recombinant human von Willebrand factor …; test: two-colour single-molecule TIRF imaging under flow; dissociation of GPIbα after flow cessation from 1280 to 0 dyn cm^-2, 57 fps, 20 concatemers, three flow cycles each; 100 nM GPIbα, 150 mM NaCl
[3] = target: T1, Recombinant human von Willebrand factor …; test: two-colour single-molecule TIRF imaging under flow; as a1 but 10 mM NaCl; VWF regions at average tension 52 ± 2.3 pN; apparent kon and koff, KD = koff/kon
[4] = target: T1, Recombinant human von Willebrand factor …; test: two-colour single-molecule TIRF imaging under flow; as a1; 150 mM NaCl; VWF regions at average tension 20 ± 2.3 pN; apparent kon and koff, KD = koff/kon
[5] = target: T1, Recombinant human von Willebrand factor …; test: two-colour single-molecule TIRF imaging under flow; biotin/Alexa 488-VWF tethered to Traptavidin on the chamber wall, Alexa 647-GPIbα in solution at five concentrations; association kinetics after shift from 0 to 1280 dyn cm^-2; 150 mM NaCl, 20 mM HEPES pH 7.4, 0.02% Tween 20; VWF regions at average tension 12 ± 2.2 pN; apparent kon and koff, 1:1 fit, KD = koff/kon
[6] = target: T1, Recombinant human von Willebrand factor …; test: two-colour single-molecule TIRF imaging under flow; as a1; 150 mM NaCl; VWF regions at average tension 28 ± 2.3 pN; apparent kon and koff, KD = koff/kon
[7] = target: T1, Recombinant human von Willebrand factor …; test: two-colour single-molecule TIRF imaging under flow; as a1; 150 mM NaCl; combined fit of the two highest force bins, tension 40-56 pN, where activation by force is maximal; apparent kon and koff, KD = koff/kon
[8] = target: T1, Recombinant human von Willebrand factor …; test: two-colour single-molecule TIRF imaging under flow; as a1 but 10 mM NaCl; VWF regions at average tension 12 ± 2.2 pN; apparent kon and koff, KD = koff/kon
[9] = target: T1, Recombinant human von Willebrand factor …; test: two-colour single-molecule TIRF imaging under flow; as a1; 150 mM NaCl; VWF regions at average tension 44 ± 2.3 pN; apparent kon and koff, KD = koff/kon
[10] = target: T1, Recombinant human von Willebrand factor …; test: two-colour single-molecule TIRF imaging under flow; as a1 but 10 mM NaCl; VWF regions at average tension 28 ± 2.3 pN; apparent kon and koff, KD = koff/kon
[11] = target: T1, Recombinant human von Willebrand factor …; test: two-colour single-molecule TIRF imaging under flow; as a1; 150 mM NaCl; VWF regions at average tension 52 ± 2.3 pN; apparent kon and koff, KD = koff/kon
[12] = target: T1, Recombinant human von Willebrand factor …; test: two-colour single-molecule TIRF imaging under flow; as a1; 150 mM NaCl; VWF regions at average tension 36 ± 2.3 pN; apparent kon and koff, KD = koff/kon
[13] = target: T1, Recombinant human von Willebrand factor …; test: two-colour single-molecule TIRF imaging under flow; as a1 but 10 mM NaCl; combined fit of the two highest force bins, tension 40-56 pN; apparent kon and koff, KD = koff/kon
[14] = target: T1, Recombinant human von Willebrand factor …; test: two-colour single-molecule TIRF imaging under flow; as a1 but 10 mM NaCl; VWF regions at average tension 36 ± 2.3 pN; apparent kon and koff, KD = koff/kon
[15] = target: T1, Recombinant human von Willebrand factor …; test: two-colour single-molecule TIRF imaging under flow; as a1 but 10 mM NaCl; VWF regions at average tension 44 ± 2.3 pN; apparent kon and koff, KD = koff/kon

B1: Wild-type human platelet GPIbα (His1 to Arg290), Alexa Fluor 647-labeled (domain or fragment, UniProt P07359 17-306, looked up)
chain: HPICEVSKVASHLEVNCDKRNLTALPPDLPKDTTILHLSENLLYTFSLATLMPYTRLTQLNLDRCELTKLQVDGTLPVLGTLDLSHNQLQSLPLLGQTLPALTVLDVSFNRLTSLPLGALRGLGELQELYLKGNELKTLPPGLLTPTPKLEKLSLANNNLTELPAGLLNGLENLDTLLLQENSLYTIPKGFFGSHLLPFAFLHGNPWLCNCEILYFRRWLQDNAENVYVWKQGVDVKAMTSNVASVQCDNSDKFPVYKYPGKGCPTLGDEGDTDLYDYYPEEDTEGDKVR
modifications: Alexa Fluor 647 (NHS ester; fluorophore:GPIbα 1.01:1)
notes: platelet glycoprotein Ib alpha chain, human, wild type, His1 to Arg290; also called GPIα-Alexa Fluor 647; source: HEK293T, transiently transfected, culture supernatant, purified (Ni-NTA, Superdex 200 SEC)
Kd [1]: 4.1 nM | koff [1]: 1.1 s⁻¹ | kon [1]: 2.61e+08 M⁻¹ s⁻¹ | koff [2]: ≥ 23 s⁻¹ | Kd [3]: 0.6 nM | koff [3]: 0.3 s⁻¹ | kon [3]: 5.38e+08 M⁻¹ s⁻¹ | Kd [4]: 290 nM | koff [4]: 3.8 s⁻¹ | kon [4]: 1.3e+07 M⁻¹ s⁻¹ | Kd [5]: 18000 nM | koff [5]: 2.3 s⁻¹ | kon [5]: 100000 M⁻¹ s⁻¹ | Kd [6]: 102 nM | koff [6]: 3.5 s⁻¹ | kon [6]: 3.5e+07 M⁻¹ s⁻¹ | Kd [7]: 78 nM | koff [7]: 3.9 s⁻¹ | kon [7]: 5e+07 M⁻¹ s⁻¹ | Kd [8]: 5.3 nM | koff [8]: 1.1 s⁻¹ | kon [8]: 2.13e+08 M⁻¹ s⁻¹ | Kd [9]: 85 nM | koff [9]: 4.2 s⁻¹ | kon [9]: 4.9e+07 M⁻¹ s⁻¹ | Kd [10]: 1.1 nM | koff [10]: 0.5 s⁻¹ | kon [10]: 4.65e+08 M⁻¹ s⁻¹ | Kd [11]: 71 nM | koff [11]: 3.6 s⁻¹ | kon [11]: 5.1e+07 M⁻¹ s⁻¹ | Kd [12]: 68 nM | koff [12]: 3.3 s⁻¹ | kon [12]: 4.9e+07 M⁻¹ s⁻¹ | Kd [13]: 0.6 nM | koff [13]: 0.3 s⁻¹ | kon [13]: 5.38e+08 M⁻¹ s⁻¹ | Kd [14]: 0.8 nM | koff [14]: 0.4 s⁻¹ | kon [14]: 5.08e+08 M⁻¹ s⁻¹ | Kd [15]: 0.6 nM | koff [15]: 0.3 s⁻¹ | kon [15]: 5.38e+08 M⁻¹ s⁻¹
